Where a chain is given by its changes, count along the chain named. One block for each binder: values may come before it.
Assays:
B3C = biological target: T1, B3C; assay: ELISA peptide competition: peptide (1X, 10X, 50X) preincubated with chimeric IgG1 B3, competitor hLAG3-mFc; capture on anti-human IgG, anti-mouse IgG-HRP
T1 construct: Chimeric: mouse VH and VL fused to constant regions of human IgG1 heavy chain and kappa light chain; also called the chimeric version of mouse mAb B3; B3 (human IgG1 heavy chain and kappa light chain chimeric)
Description: (§1) Then human LAG-3 extracellular domain (ECD) fused to mouse Fc (hLAG3-mFc) was added (the final peptide concentration was 600-fold that of hLAG3-mFc) and the mixture was incubated for 60 minutes before being added to an ELISA plate coated with anti-human IgG. The incubation was carried out at 4° C. overnight. After washing, the hLAG3-mFc bound to the immobilized B5/IgG4 on the ELISA plate was detected by adding anti-mouse IgG conjugated to horseradish peroxidase (HRP) and incubating for 60 minutes. Then, after washing, the ELISA was developed using One-step Detection Solution and measured as the absorbance at 450 nm.
(§2) FIGS. 9A-9B show the effect of competition peptides on LAG-3 binding to anti-LAG-3 mAbs.
(§3) Anti-human IgG in carbonate coating buffer was coated on an ELISA plate at 4° C. (50 μL/well at 1 μg/mL) overnight. In each well of a separate plate, a chimeric version of a given anti-LAG-3 mAb (50 μL/well at 1.4 nM) and a competition peptide (50 μL/well at various concentrations as indicated in the figures) were mixed and incubated for 30 minutes at room temperature. Then human LAG-3 extracellular domain (ECD) fused to mouse Fc (hLAG3-mFc) was added to each well (50 μL/well at 2 nM) and the final mixture was incubated at room temperature for 60 minutes before added to the ELISA plate (50 μL/well) for another 60-minute incubation. The final incubation after adding the mixture to the ELISA plate was also performed at 4° C. overnight in some assays.

B4C = biological target: T2, B4C; assay: ELISA peptide competition: peptide (1X, 10X, 50X) preincubated with chimeric IgG1 B4, competitor hLAG3-mFc; capture on anti-human IgG, anti-mouse IgG-HRP
T2 construct: Chimeric: mouse VH and VL fused to constant regions of human IgG1 heavy chain and kappa light chain; also called the chimeric version of mouse mAb B4; B4 (human IgG1 heavy chain and kappa light chain chimeric)
Description: as §1, §2, §3

B7/IgG4 = biological target: T3, B7/IgG4; assay: ELISA peptide competition: peptide preincubated with B7/IgG4, competitor hLAG3-mFc; peptide at 600-fold hLAG3-mFc; final incubation 60 min at room temperature; anti-mouse IgG-HRP
T3 construct: Chimeric: mouse VH and VL with human IgG4 heavy chain and kappa light chain constant regions; also called B7 (human IgG4 heavy chain and kappa light chain chimeric)
Description: as §1, with “B5/IgG4 was preincubated with a competition peptide for 30 minutes. Then human” for “Then human”
The assay condition is the same as in FIG. 5A except that the final incubation of the mAb, the competition peptide, and hLAG3-mFc on the ELISA plate was performed at room temperature for 60 minutes instead of incubation at 4° C. overnight.
as §3, with “incubation.” for “incubation. The final incubation after adding the mixture to the ELISA plate was also performed at 4° C. overnight in some assays.”

human LAG-3(ECD)-huFc = biological target: T4, human LAG-3(ECD)-huFc (human, UniProt P18627 23-450); assay: SPR (Biacore): mAb from hybridoma supernatant captured on anti-mouse IgG CM5 chip, human LAG-3(ECD)-huFc 50-400 nM injected
T4 construct: also called Fc-tagged human LAG-3(ECD)-huFc; not shown: human Fc (huFc) at the C-terminus
T4 sequence: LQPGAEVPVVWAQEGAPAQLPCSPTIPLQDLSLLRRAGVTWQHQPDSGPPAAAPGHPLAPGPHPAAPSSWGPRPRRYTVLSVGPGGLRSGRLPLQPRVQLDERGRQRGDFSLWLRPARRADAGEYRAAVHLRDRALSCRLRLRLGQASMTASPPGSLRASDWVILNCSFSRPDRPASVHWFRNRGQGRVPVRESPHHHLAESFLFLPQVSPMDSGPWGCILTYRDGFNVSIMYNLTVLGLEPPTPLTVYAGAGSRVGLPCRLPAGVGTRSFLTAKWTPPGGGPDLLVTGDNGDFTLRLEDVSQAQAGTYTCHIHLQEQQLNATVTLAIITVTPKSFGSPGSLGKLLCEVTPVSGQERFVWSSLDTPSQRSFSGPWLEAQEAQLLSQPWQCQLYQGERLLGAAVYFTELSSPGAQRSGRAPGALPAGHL
Description: Anti-mouse IgG antibodies were immobilized via amine coupling on CM5 chip surface. Anti-LAG-3 mAbs in hybridoma supernatants were captured on the chip surface and a series of concentrations (50-400 nM) of human LAG-3(ECD)-huFc protein were injected and passed through the captured surface. The on and off rates for antibody-antigen binding were measured, curve fitted and calculated.

binding result (B3C): no binding (tested: 50X peptide)
binding result (B4C): no binding (tested: 50X peptide)
B1: 7-22 (peptide)
peptide: PGHPLAPGPHPAAPSS
notes: also called peptide 7-22

binding result (B7/IgG4): binds
B2: 15-27 (peptide)
peptide: PHPAAPSSWGPRP
notes: also called peptide 15-27

Kd (human LAG-3(ECD)-huFc): 1.53 nM
B3: B3 (antibody, V domains shown)
VH: QVQLQQPGAELLKPGASVKMSCKASGYTFTSYDIHWLKQTPGQGLEWIGAIYPENGDSSYSQKFKDKATLTADKSSNTAYIHLSSLTSEDSAVYYCARGGYYDYVWFPYWGQGTLVTVSA
VL: DVVMTQTPLSLPVSLGDQASISCRSSQSILYSNGYTYLEWYLQKPGQSPKLLIYGVSNRFSGVPDRFSGSGSGTDFTLKISRVESEDMGVYYCFQGTHVPLTFGAGTKLELK
notes: Mouse mAb from hybridoma; also called mouse anti-LAG-3 mAb B3

Kd (human LAG-3(ECD)-huFc): 0.217 nM
B4: B4 (antibody, V domains shown)
VH: B3 VH with D66G, Y102F
VL: B3 VL with L30V, S85A
notes: Mouse mAb from hybridoma; also called mouse anti-LAG-3 mAb B4

binding result (B3C): binds
binding result (B4C): binds
B5: 7-23 (peptide)
peptide: PGHPLAPGPHPAAPSSW
notes: also called peptide 7-23

Kd (human LAG-3(ECD)-huFc): 0.758 nM
B6: B7 (antibody, V domains shown)
VH: EFQLQQSGPELVKPGASVKISCKASGYSFSDYNLNWVKQSNGKTLEWIGLINLDSAATVYNQKFKGKATLTIDQSSTTAYMQLNSLTSDDSAVYYCASYDYWGQGTTLTVSS
VL: DIQMTQSPSSLSASLGERVSLSCRASQDISHYLNWFQQKPDGTFKRLIYETSTLDFGVPKRFSGSRSGSDYSLTIGSLESEDFADYYCLQYATYPLTFGAGTKLELK
notes: Mouse mAb from hybridoma; also called mouse anti-LAG-3 mAb B7

Kd (human LAG-3(ECD)-huFc): 1.1 nM
B7: B10 (antibody, V domains shown)
VH: EFQLQQSGPELVKPGASVKISCKASGYSFTDYNLNWVKESNGKSLEWIGLITLDYGTTIYNQKFKGKATLTVDQSSSIAYMQLNSLTSDDSAVYYCACYDYWGQGTTLTVSS
VL: B6 VL with S22T, H31N, E50A, G76S, T93S
notes: Mouse mAb from hybridoma; also called mouse anti-LAG-3 mAb B10

binding result (B7/IgG4): binds
B8: 18-30 (peptide)
peptide: AAPSSWGPRPRRY
notes: also called peptide 18-30

binding result (B7/IgG4): binds
B9: 15-28 (peptide)
peptide: PHPAAPSSWGPRPR
notes: also called peptide 15-28

Kd (human LAG-3(ECD)-huFc): 1.21 nM
B10: B1 (antibody, V domains shown)
VH: DVQLQESGPGLVKPSQSLSLTCTVTGYSITSDYAWNWIRQFPGNKLEWMGYIDYSGITSYNPSLKSRISITRDTSKNQFFLQLNSVTTEDTATYYCAREDHYDLAWFAYWGQGTLVTVSA
VL: DIQMTQTTSSLSASLGDRVTISCRASQDISNYLNWYQQKPDGTVKLLIYYTSRLHSGVPSRFSGSGSGTDYSLTISNLEPEDIATYYCHQYSNRPPTFGGGTKLEIK
notes: Mouse mAb from hybridoma; also called mouse anti-LAG-3 mAb B1

binding result (B3C): binds
binding result (B4C): binds
B11: 13-24 (peptide)
peptide: PGPHPAAPSSWG
notes: also called peptide 13-24

Kd (human LAG-3(ECD)-huFc): 1.18 nM
B12: B11 (antibody, V domains shown)
VH: EVQLQQSGPVLVRPGASVKMSCKASGYTFTNYYMNWVKQSHGKSLEWIGVINPYNGDIAYSQKFKGKATLTVDKSSSTAYMELKSLTSEDSAVYYCARDDGYYVYYFDCWGQGTTLTVSS
VL: DIQMTQSPSSLSASLGERVSLTCRASQDIGGSLNWLQQKPDGTIKRLIYSTSTLDSGVPKRFSGSRSGSDYSLTISSLESEDFADYYCLQNANSPPTFGGGTKLEIK
notes: Mouse mAb from hybridoma; also called mouse anti-LAG-3 mAb B11

binding result (B7/IgG4): binds
B13: 19-30 (peptide)
peptide: APSSWGPRPRRY
notes: also called peptide 19-30

binding result (B3C): binds
binding result (B7/IgG4): binds
binding result (B4C): binds
B14: 16-30 (peptide)
peptide: HPAAPSSWGPRPRRY
notes: also called peptide 16-30

binding result (B3C): binds
binding result (B4C): binds
B15: 12-24 (peptide)
peptide: APGPHPAAPSSWG
notes: also called peptide 12-24

Kd (human LAG-3(ECD)-huFc): 4.09 nM
B16: B2 (antibody, V domains shown)
VH: QVHLQQSGPQLVKPGASVKISCKASGYTFTDYYINWVKQRPGQGLEWIGWIFPGSGSTYYNEKFKGKATLTVDKSSSTAYMLLSSLTSEDSAVYFCVRIHFDYDWFFDVWGTGTTVTVSS
VL: DVVMTQTPLSLPVSLGDQASISCRSSQSIVHSNGNTYFYWYLQKPGQSPNLLIYRVSNRFSGVPDRFSGSGSGTDFTLKISRVEAEDMGVYYCFQGTHVPYTFGGGTKLEIK
notes: Mouse mAb from hybridoma; also called mouse anti-LAG-3 mAb B2

Kd (human LAG-3(ECD)-huFc): 8.17 nM
B17: B13 (antibody, V domains shown)
VH: EVMLVESGGGLVKPGGSLKVSCAASGFTFSIYAMCWVRQTPEKRLEWVATISSGGSNTYYPDSVKGRFTISRDNAKNTLYLQMSSLRSEDTAVYYCARGDVYYDYDGRGFDYWGQGTTLTVSS
VL: DIVMTQSPSSLTVTAGEKVTMSCKSSQSLLNSGNQKNYLTWYQQKPGQPPKMLIYWASTRESGVPERFTGSGSGTDFTLTINSVQAEDMAIYYCQNDYGYPLAFGAGTRLELK
notes: Mouse mAb from hybridoma; also called mouse anti-LAG-3 mAb B13

binding result (B7/IgG4): binds
B18: 15-29 (peptide)
peptide: PHPAAPSSWGPRPRR
notes: also called peptide 15-29

binding result (B3C): binds
binding result (B7/IgG4): binds
binding result (B4C): binds
B19: 15-30 (peptide)
peptide: PHPAAPSSWGPRPRRY
notes: also called peptide 15-30

binding result (B3C): binds
binding result (B4C): binds
B20: 11-24 (peptide)
peptide: LAPGPHPAAPSSWG
notes: also called peptide 11-24

binding result (B7/IgG4): binds
B21: 17-30 (peptide)
peptide: PAAPSSWGPRPRRY
notes: also called peptide 17-30

binding result (B3C): binds
binding result (B4C): binds
B22: 14-24 (peptide)
peptide: GPHPAAPSSWG
notes: also called peptide 14-24
